Experimental data: patent US8530168B2, “Fusion protein comprising a Caspase domain and a nuclear hormone receptor binding domain and methods and uses thereof” (Helmholtz Zentrum Munich Deutsches Forschungszentrum fuer …, priority 2007, dated 2013)

How the values were obtained:
[1] = tested on: Pac2 cells; assay: Transient cotransfection with β-galactosidase reporter into Pac2 cells; format: cell-based, zebrafish; details: 10^−8 M 4-OH-tamoxifen, Cre-ER(T2) as reference, range given jointly for HeLa and Pac2
Protocol: (§1) Results are shown as mean values of triplicate samples with standard deviation. (b) Transient cotransfection of a β-galactosidase reporter with a Cre-ER(T2), myrCasp8-ER(T2), or Casp9-ER(T2) expression plasmid into murine M5/N9 (black columns), human HeLa (grey columns) or zebrafish Pac2 (open columns) cells. 12 h following transfection, cells were cultured for 36 h with 4-OH-tamoxifen at 10^−8 M and the activity of β-galactosidase in cell lysates was determined. Values obtained from transfections of the Cre-ER(T2) vector were defined as reference. Results are shown as mean values of triplicate samples with standard deviation.
PAC2 zebrafish fibroblasts were grown in Leibowitz's L15—with L-Glutamine medium supplemented with 1% Non-essential Amino Acids, 1% Penicillin/Streptomycin and 10% fetal calf serum (all Gibco) at 28° C. 3×10^6 Cells were transiently transfected with the plasmids CMVβ together with CAG-CreER(T2), CAG-myrCasp8ER(T2) or CAG-Casp9ER(T2) (500 ng each) using nanofectin transfection reagent (PAA). 24 hrs after transfection the medium was replaced and conditioned with 10^−8 M 4-OH-tamoxifen. Before lysis, the cells were incubated for another 24 hrs at 28°. […]

[2] = tested on: HeLa cells; assay: Transient cotransfection with β-galactosidase reporter into HeLa cells; format: cell-based, human; details: 10^−8 M 4-OH-tamoxifen, Cre-ER(T2) as reference, range given jointly for HeLa and Pac2
Protocol: as §1
Transient transfections into M5/N9 and HeLa cells were performed with FuGene transfection reagent (Roche) following the manufacturer's instructions. Briefly, semiconfluent cultures in a 24-well plate were transfected in triplicate with 112 ng of the β-galactosidase expression vector CMVβ(Invitrogen) and the same amount of pCAG-Cre-ER(T2), pCAG-Casp8-ER(T2) or pCAG-Casp9-ER(T2) plasmid DNA. After 12 h 4-OH-tamoxifen was added at a concentration of 10^−8 M and the cultures were lysed at 48 h. Cell lysis and the measurement of β-galactosidase activity by chemiluminescence were performed with the β-galactosidase reporter gene assay (Roche) using a Centro LB960 plate luminometer (Berthold). […]

[3] = tested on: MEF5/N9 cells; assay: Transient cotransfection of ER(T2) fusion expression vectors with β-galactosidase reporter; β-galactosidase activity in lysates; format: cell-based, mouse; details: 10^−8 M 4-OH-tamoxifen, 48 h; relative to Cre-ER(T2) without 4-OH-tamoxifen
Outline: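 MEF5/N9 mouse embryonic fibroblasts transiently cotransfected with pCMV-β-gal reporter (100 ng) plus ER(T2) fusion vector (100 ng; 50 ng for Casp9 constructs), then induced with 10^−8 M 4-OH-tamoxifen for 48 h. Lysate β-galactosidase read by chemiluminescence (RLU), mean of two wells, expressed relative to uninduced pCAG-Cre-ER(T2) control set at 1.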

B1: Casp9full-ER(T2): full length murine Caspase-9 fused to ER(T2) ligand binding domain, SEQ ID NO: 29 (protein)
chain: MDEADRQLLRRCRVRLVSELQVAELWDALLSRELFTRDMIEDIQQAGSGSRRDQARQLVTDLETRGRQALPLFISCLEDTGQGTLASLLQSGRQAAKQDPEAVKPLDHLVPVVLGPMGLTAKEQRVVKLDPSQPAVGNLTPVVLGPEELWPARLKPEVLRPETPRPVDIGSGGAHDVCVPGKIRGHADMAYTLDSDPCGHCLIINNVNFCPSSGLGTRTGSNLDRDKLEHRFRWLRFMVEVKNDLTAKKMVTALMEMAHRNHRALDCFVVVILSHGCQASHLQFPGAVYGTDGCSVSIEKIVNIFNGSGCPSLGGKPKLFFIQACGGEQKDHGFEVACTSSQGRTLDSDSEPDAVPYQEGPRPLDQLDAVSSLPTPSDILVSYSTFPGFVSWRDKKSGSWYIETLDGILEQWARSEDLQSLLLRVANAVSAKGTYKQIPGCFNFLRKKLFFKTSVEPSAGDMRAANLWPSPLMIKRSKKNSLALSLTADQMVSALLDAEPPILYSEYDPTRPFSEASMMGLLTNLADRELVHMINWAKRVPGFVDLTLHDQVHLLECAWLEILMIGLVWRSMEHPVKLLFAPNLLLDRNQGKCVEGMVEIFDMLLATSSRFRMMNLQGEEFVCLKSIILLNSGVYTFLSSTLKSLEEKDHIHRVLDKITDTLIHLMAKAGLTLQQQHQRLAQLLLILSHIRHMSNKGMEHLYSMKCKNVVPLYDLLLEAADAHRLHAPTSRGGASVEETDQSHLATAGSTSSHSLQKYYITGEAEGFPATA
modifications: fusion protein Casp9full-ER(T2)
- reduction of β-Galactosidase activity in presence of 4-OHT [1]: 91-93%
- reduction of β-Galactosidase activity in presence of 4-OHT [2]: 91-93%
- relative β-galactosidase activity in presence of 4-OH-tamoxifen compared to the negative control [3]: 7%
